According to publication PMC8395244, “The Oxoglutarate Binding Site and Regulatory Mechanism Are Conserved in Ammonium Transporter Inhibitors GlnKs from Methanococcales” (International Journal of Molecular Sciences, 2021):

Assays:
[1] = biological target: MtGlnK2 (GlnK isoform 2 from Methanothermococcus thermolithotrophicus), recombinant, N-terminally tagged (Methanothermococcus thermolithotrophicus); experiment: crystal structure; sitting drop at 18 °C; crystallised with or without 2 mM ATP, 2 mM 2OG and 2 mM MgCl2; solved by molecular replacement with PDB 2J9D
[2] = biological target: MtGlnK1 (GlnK isoform 1 from Methanothermococcus thermolithotrophicus), recombinant, N-terminally tagged (Methanothermococcus thermolithotrophicus); experiment: as above

Row | stoichiometry N [1] | stoichiometry N [2] | Substance
1 | 3 |  | MtGlnK2 (GlnK isoform 2 from Methanothermococcus thermolithotrophicus), recombinant, N-terminally tagged (natural protein)
2 |  | 3 | MtGlnK1 (GlnK isoform 1 from Methanothermococcus thermolithotrophicus), recombinant, N-terminally tagged (natural protein)
